In article PMC13155533, “The secreted protein PCYOX1L controls the surface expression of acid-sensing ion channel 1a” (Science Advances, 2025):

What was measured:
[1] = biological target: the molecule itself; assay: native gel or EMSA; high-resolution clear native PAGE (4 to 16%) of GFP-tagged proteins from 1% digitonin lysates of transfected HEK cells, GFP fluorescence scan; without coexpressed PCYOX1L
[2] = biological target: the molecule itself; assay: native gel or EMSA; high-resolution clear native PAGE (4 to 16%) of GFP-tagged proteins from 1% digitonin lysates of transfected HEK cells, GFP fluorescence scan; ASIC1a-GFP coexpressed with PCYOX1L-GFP

B1: rat ASIC2a-GFP (natural protein, UniProt Q62962-1 1-512, looked up)
chain: MDLKESPSEGSLQPSSIQIFANTSTLHGIRHIFVYGPLTIRRVLWAVAFVGSLGLLLVESSERVSYYFSYQHVTKVDEVVAQSLVFPAVTLCNLNGFRFSRLTTNDLYHAGELLALLDVNLQIPDPHLADPTVLEALRQKANFKHYKPKQFSMLEFLHRVGHDLKDMMLYCKFKGQECGHQDFTTVFTKYGKCYMFNSGEDGKPLLTTVKGGTGNGLEIMLDIQQDEYLPIWGETEETTFEAGVKVQIHSQSEPPFIQELGFGVAPGFQTFVATQEQRLTYLPPPWGECRSSEMGLDFFPVYSITACRIDCETRYIVENCNCRMVHMPGDAPFCTPEQHKECAEPALGLLAEKDSNYCLCRTPCNLTRYNKELSMVKIPSKTSAKYLEKKFNKSEKYISENILVLDIFFEALNYETIEQKKAYEVAALLGDIGGQMGLFIGASLLTILELFDYIYELIKEKLLDLLGKEEEEGSHDENMSTCDTMPNHSETISHTVNVPLQTALGTLEEIAC
notes: ASIC2a, rat, in pEGFP-N1; In the functional row the untagged rat ASIC2a (pcDNA3.1) was used; source: HEK cells, transfected, in digitonin lysate
With B1 the “stoichiometry N” value [1] was 3.

B2: rat ASIC1a-GFP (natural protein, UniProt P55926-1 1-526, looked up)
chain: MELKTEEEEVGGVQPVSIQAFASSSTLHGLAHIFSYERLSLKRALWALCFLGSLAVLLCVCTERVQYYFCYHHVTKLDEVAASQLTFPAVTLCNLNEFRFSQVSKNDLYHAGELLALLNNRYEIPDTQMADEKQLEILQDKANFRSFKPKPFNMREFYDRAGHDIRDMLLSCHFRGEACSAEDFKVVFTRYGKCYTFNSGQDGRPRLKTMKGGTGNGLEIMLDIQQDEYLPVWGETDETSFEAGIKVQIHSQDEPPFIDQLGFGVAPGFQTFVSCQEQRLIYLPSPWGTCNAVTMDSDFFDSYSITACRIDCETRYLVENCNCRMVHMPGDAPYCTPEQYKECADPALDFLVEKDQEYCVCEMPCNLTRYGKELSMVKIPSKASAKYLAKKFNKSEQYIGENILVLDIFFEVLNYETIEQKKAYEIAGLLGDIGGQMGLFIGASILTVLELFDYAYEVIKHRLCRRGKCQKEAKRSSADKGVALSLDDVKRHNPCESLRGHPAGMTYAANILPHHPARGTFEDFTC
notes: ASIC1a, rat, in pEGFP-N1; the methods say that rat ASIC1a was used for coexpression with PCYOX1L in HEK293 cells; The vector pEGFP-N1 would put GFP at the C-terminus; source: HEK cells, transfected, in digitonin lysate
With B2 the “stoichiometry N” value [2] was 3.
